These results are taken from the DeepSol protein solubility set.

The data set is described as follows: soluble on expression in E. coli; label from the status in PepcDB or PDB records.
For the sequence “MAQQKKTIAVVGATGRQGASLIRVAAAVGHHVRAQVHSLKGLIAEELQAIPNVTLFQGPLLNNVPLMDTLFEGAHLAFINTTSQAGDEIAIGKDLADAAKRAGTIQHYIYSSMPDHSLYGPWPAVPMWAPKFTVENYVRQLGLPSTFVYAGIYNNNFTSLPYPLFQMELMPDGTFEWHAPFDPDIPLPWLDAEHDVGPALLQIFKDGPQKWNGHRIALTFETLSPVQVCAAFSRALNRRVTYVQVPKVEIKVNIPVGYREQLEAIEVVFGEHKAPYFPLPEFSRPAAGSPKGLGPANGKGAGAGMMQGPGGVISQRVTDEARKLWSGWRDMEEYAREVFPIEEEANGLDWML”, the “soluble on expression in E. coli” value was “soluble”.
With “PATDWLSAETFESDLDETRVPEVPSSLHVRPLVTSIVVSWTPPENQNIVVRGYAIGYGIGSPHAQTIKVDYKQRYYTIENLDPSSHYVITLKAFNNVGEGIPLYESAVTRPHT”, the “soluble on expression in E. coli” value was “soluble”.
The same measure for “MSRLLALLALAPLLAGAAETTAPKPPSAFTVEAQRRVEAELPFADRADFERADRGLIRRPERLLIRNPDGSVAWQLGGYDFLLDGKPRDSINPSLQRQALLNLKYGLFEVAEGIYQVRGFDLANITFIRGDSGWIVVDTLTTPATARAAYELVSRELGERPIRTVIYSHAHADHFGGVRGLVEPQQVASGAVQIIAPAGFMEAAIKENVLAGNAMMRRATYQYGTQLPKGPQGQVDMAIGKGLARGPLSLLAPTRLIEGEGEDLVLDGVPFTFQNTPGTESPAEMNIWLPRQKALLMAENVVGTLHNLYTLRGAEVRDALGWSKYINQALHRFGRQAEVMFAVHNWPRWGNAEIVEVLEKQRDLYGYLHDQTLHLANQGVTIGQVHNRLRLPPSLDQEWYDRGYHGSVSHNARAVLNRYLGYYDGNPATLDPLSPEDSAGRYVEYMGGAERLLEQARASYARGEYRWVVEVVNRLVFAEPDNRAARELQADALEQLGYQAENAGWRNSYLSAAYELRHGVPRDQPTMKAGSADALAAMDTGLLFDYLGVRLDAGAAEGKALSINLRLPDIGENYLLELKNSHLNNLRGVQSEDAGQTVSIDRADLNRLLLKEVSAVRLVFEGKLKSSGNPLLLGQLFGMLGDFDFWFDIVTPAAKSEG”: “soluble”.
Turning to “MNLFYNPKYVGDVAFLQIEPVEGELNYNKKGNVVEITNEGNVVGYNIFEISKDITIEEKGHIKLTDELVNVFQKRISEAGFDYKLNADLSPKFVVGYVETKDKHPDADKLSVLNVNVGNDTLQIVCGAPNVEAGQKVVVAKVGAVMPSGMVIKDAELRGVASSGMICSMKELNLPNAPEEKGIMVLNDSYEIGQAFFELEHHHHHH”, the “soluble on expression in E. coli” value is “soluble”.
“MKIKSIEARNISIPLNRPIHNPAFKFTHCKYTIVTVTTDEDITGWSFSFGMHHTKAVVDELAEILVGEEIDTRRLYEKMMRTQAVRWDRGGISMRALSAIDIALWDIVGKSCGLPLYRLMGCYREEIPVYYSGGHYPVDSTKTSDMLDYLEQDIGKGLDRGFSSFKIKIGGAAVNQDLERIAFCRKLIGPYRRLMVDAFCAYEADVIIPMAKKFEQYDIGFLEEPVALDDIPGCAYVAANVSMPVALGESHYTMAQFRDIINSKAARILQPDVAYVGGITGFMQYAGIAAYHGLRLAPHWCHDLSVQLALSIPQIRELEYMDQNSALFLIQKVIENPVTAKNGIVRAPEGAGHGLVLDEKAVERYLA”: the “soluble on expression in E. coli” value is given as “soluble”.
With “MSLYPKAYIDYLVEFHATRDYFECHEILEEYWKEDPPKKRKRYWVGFIQLAVALYHHRRQNTAGAKRLMANSIRILQAEHRAVEDLGLDHGRLLELMQSVYEQIETVSAYKSIILPIKDEKLEEACRIECRKKKYTWGQPSALSNIFLIDKHRLRDRTDVIREREKEIERRKKSRDEGHHHHHH” the entry was “soluble”; with “MKAKAILLASVLLVGCQTSQNTGNVQQHAQSLSAAGQGEAGKFTSQARWMDDGTSIAPDQDLWAFIGDELKMGIPENSRIREQKQKYLRNKSYLHDVTLRAEPYMYWIAGQVKKRNMPMELVLLPIVESAFDPHATSGANAAGIWQIIPSTGRNYGLKQTRNYDARRDVVASTTAALDMMQRLNKMFDGDWLLTVAAYNSGEGRVMRAIKANKARGKPTDFWSLSLPRETKLYVPKMLALSEILKNSKRYGVRLPTTDESRALARVRLNSPVEMAQVADMAGMSISKLKTFNAGVKGSTLGVSGPQYVMVPKKHAEQLRESLASGEIDAVQSQLIADNTPLNSRSYKVRSGDTLSGIASRLGVSTKDLQQWNNLRGSRLKIGQSLTVGAGSSAQRLANNSDSITYRVRKGDSLSSIARRHGVNIKDVMRWNHDTDNLQPGDQLTLFVKDNSTPDSLEHHHHHH”, “soluble”.
With “PKPLVILAHEIYGVNSHMKKMGRLIKMAGYDVLTPNLLGEDEVYTLKEEKTAYEQFTKHERLKTGETIIQPVIRQNAGRHIFVIGFSVGATIAWKCSSMPEVSGSVCYYGSRIRDSLHHMPACPVLLFFPNYEPSFDVALLIKKLREKQHTHLEIYQFDALHASP” the entry was “not soluble”; with “MANIVITTHWTDGDVLPFIKIGSELRKRGHRVTLITHCYYKNMAKSQGLDFEAWDSPEQHRQMLEDMKEELDPLRNPCALERYKKKYESIEVRLREFKKVIAHCNTTDTVLVAKNRSSVAAYLAAEKLNIPLVCVFMAPSEMLSMVSYEMMLGKLLANELNLLRKELNLAPVKSWLAWQSSPKRQIALWPDWFAEPIEEWPAEVINVGFPLSYNERFDNLPPDLMEDLLGDEPPVVITGGTSKTIRPEFYPLCVETCRLSGRKGILVTRYEELLPKELPDKVKWFRELPLNKIFPYTSAVIHHGGMGTLSGAIAAGVPQLVLPYYLDRPYNALCLKKLGIAEYLPPIKWKPEIMVDALQKITASSFRERCKLFSKKVSLQNTMNEICCLIEETVNNEEFLLKDISLLQTT”, “not soluble”.
As to “MYIGIDLGTSGVKVILLNEQGEVVAAQTEKLTVSRPHPLWSEQDPEQWWQATDRAMKALGDQHSLQDVKALGIAGQMHGATLLDAQQRVLRPAILWNDGRCAQECTLLEARVPQSRVITGNLMMPGFTAPKLLWVQRHEPEIFRQIDKVLLPKDYLRLRMTGEFASDMSDAAGTMWLDVAKRDWSDVMLQACDLSRDQMPALYEGSEITGALLPEVAKAWGMATVPVVAGGGDNAAGAVGVGMVDANQAMLSLGTSGVYFAVSEGFLSKPESAVHSFCHALPQRWHLMSVMLSAASCLDWAAKLTGLSNVPALIAAAQQADESAEPVWFLPYLSGERTPHNNPQAKGVFFGLTHQHGPNELARAVLEGVGYALADGMDVVHACGIKPQSVTLIGGGARSEYWRQMLADISGQQLDYRTGGDVGPALGAARLAQIAANPEKSLIELLPQLPLEQSHLPDAQRYAAYQPRRETFRRLYQQLLPLMA”, the “soluble on expression in E. coli” value is listed as “soluble”.
The same measure for “MTKKYLTFDCYGTLINTEPLYQWVANLGLAVGLDPLTVRKAYATYEDDPASVNPYLDYSTLVRADLKHLDRLFEQRHFFESHYVECLEVQRHLLPYADVIPTLTAWQQLGYQLIIMSNSSWDIMPANIAALKVSFTAVVTAEDIQAYKPALAFFETVQERFKLTADNHWHIARGYESDVVPASAMQWPMIWINRDQRQPTSSERPTHMVTDLAAVKQWVN”: “not soluble”; for “TDGQLTKQHVRALAISALAPKPHETLWDIGGGSGSIAIEWLRSTPQTTAVCFEISEERRERILSNAINLGVSDRIAVQQGAPRAFDDVPDNPDVIFIGGGLTAPGVFAAAWKRLPVGGRLVANAVTVESEQMLWALRKQFGGTISSFAISHEHTVGSFITMKPALPVHQWTVVKALTKEL”: “soluble”; for “MGHHHHHHSHMAKTYDYLFKLLLIGDSGVGKTCVLFRFSEDAFNSTFISTIGIDFKIRTIELDGKRIKLQIWDTAGQERFRTITTAYYRGAMGIMLVYDITNEKSFDNIRNWIRNIEEHASADVEKMILGNKCDVNDKRQVSKERGEKLALDYGIKFMETSAKANINVENAFFTLARDIKAKMDKKLEGNSPQGSNQGVKITPDQQKRSSFFRCVLL”: “soluble”.
The same measure for “MATLFIADLHLQTEEPAITAGFLRFLQGEARQADALYILGDLFEAWIGDDDPNPLHQQIASAIKAVVDAGVPCYFIHGNRDFLVGQRFARQSGMILLAEEERLDLYGREVLIMHGDTLCTDDQGYLAFRAKVHTPWIQRLFLALPLFIRHRIAARMRADSKAANSSKSMEIMDVNPQAVVDAMERHHVQWLIHGHTHRPAVHELQANGQPAWRVVLGAWHSEGSMVKVTPDDVELIHFPF”: “not soluble”.
